# Measurements: paper PMC4695161
# Assays:
# [1] = biological target: human cyclin D1 (CCND1) (human) (UniProt P24385); assay: AUC; sedimentation velocity of CCND1 alone at 0.05, 0.1 and 0.3 mg/ml, 30 mM Tris-HCl pH 7.4, 20°C; global fit (SEDPHAT) to monomer-dimer equilibrium; dimer to monomers
# [2] = biological target: ornithine decarboxylase (Homo sapiens) (UniProt P11926); assay: analytical ultracentrifugation; settings: cited from earlier work
# [3] = biological target: antizyme inhibitor (Homo sapiens) (UniProt O14977); assay: analytical ultracentrifugation; settings: cited from earlier work
# [4] = biological target: C-terminal AZ peptide AZ(100-228) (human) (UniProt P54368); assay: AUC; sedimentation velocity; AZ or AZ peptide at a fixed concentration, three concentrations of CCND1; 30 mM Tris-HCl pH 7.4, 50 mM NaCl; global fit (SEDPHAT) to A+B↔AB hetero-association
# Chain of C-terminal AZ peptide AZ(100-228) (human) (P54368 100-228): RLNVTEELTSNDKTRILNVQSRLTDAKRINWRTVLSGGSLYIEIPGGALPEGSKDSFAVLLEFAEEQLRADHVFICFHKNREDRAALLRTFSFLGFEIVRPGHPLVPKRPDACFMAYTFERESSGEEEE
# Chain of human cyclin D1 (CCND1) (P24385 whole entry): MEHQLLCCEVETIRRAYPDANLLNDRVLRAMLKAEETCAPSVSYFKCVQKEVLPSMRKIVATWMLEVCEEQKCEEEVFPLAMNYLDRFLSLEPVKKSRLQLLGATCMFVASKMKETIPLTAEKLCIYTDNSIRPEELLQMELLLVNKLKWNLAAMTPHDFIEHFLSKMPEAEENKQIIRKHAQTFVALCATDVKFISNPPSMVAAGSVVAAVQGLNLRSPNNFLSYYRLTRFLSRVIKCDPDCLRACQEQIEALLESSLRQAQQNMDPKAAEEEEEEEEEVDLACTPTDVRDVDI
# Chain of antizyme (P54368 whole entry): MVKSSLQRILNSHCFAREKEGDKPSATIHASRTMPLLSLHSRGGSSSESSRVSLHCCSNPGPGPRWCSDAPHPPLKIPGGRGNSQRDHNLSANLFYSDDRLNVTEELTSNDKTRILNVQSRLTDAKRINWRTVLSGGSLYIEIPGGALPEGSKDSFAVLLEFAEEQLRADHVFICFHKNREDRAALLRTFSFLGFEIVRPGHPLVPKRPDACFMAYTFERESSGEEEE
# Chain of ornithine decarboxylase (Homo sapiens) (P11926 whole entry): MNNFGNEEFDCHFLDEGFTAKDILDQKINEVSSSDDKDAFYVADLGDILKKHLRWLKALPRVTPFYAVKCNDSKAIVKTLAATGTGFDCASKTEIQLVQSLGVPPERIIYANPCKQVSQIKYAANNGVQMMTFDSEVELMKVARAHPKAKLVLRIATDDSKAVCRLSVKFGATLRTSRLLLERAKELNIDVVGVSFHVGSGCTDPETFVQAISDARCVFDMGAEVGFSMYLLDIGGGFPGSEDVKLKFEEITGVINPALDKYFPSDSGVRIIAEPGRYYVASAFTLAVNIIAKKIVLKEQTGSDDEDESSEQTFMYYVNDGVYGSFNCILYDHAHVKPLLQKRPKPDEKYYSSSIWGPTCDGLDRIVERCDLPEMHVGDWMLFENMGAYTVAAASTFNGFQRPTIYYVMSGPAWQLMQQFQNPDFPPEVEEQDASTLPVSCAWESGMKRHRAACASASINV
# Chain of antizyme inhibitor (Homo sapiens) (O14977 whole entry): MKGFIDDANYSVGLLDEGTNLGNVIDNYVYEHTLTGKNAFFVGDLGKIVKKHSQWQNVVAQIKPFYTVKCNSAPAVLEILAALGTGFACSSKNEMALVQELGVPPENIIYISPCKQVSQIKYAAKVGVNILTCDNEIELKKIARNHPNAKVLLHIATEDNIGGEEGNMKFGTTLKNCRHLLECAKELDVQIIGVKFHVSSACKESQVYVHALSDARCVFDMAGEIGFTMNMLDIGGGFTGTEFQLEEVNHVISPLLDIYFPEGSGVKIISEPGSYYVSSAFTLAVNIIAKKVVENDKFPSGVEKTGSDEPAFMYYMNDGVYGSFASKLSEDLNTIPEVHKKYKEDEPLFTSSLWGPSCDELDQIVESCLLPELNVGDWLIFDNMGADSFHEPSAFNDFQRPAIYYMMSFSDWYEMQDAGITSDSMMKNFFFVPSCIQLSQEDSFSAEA
substance,measurement,setting,value
human cyclin D1 (CCND1) (from UniProt P24385 1-295) (natural protein; other documents disagree on this pair),Kd,[1],3840 nM
same,stoichiometry N,[1],2
antizyme (from UniProt P54368),Kd,[2],210 nM
same,Kd,[3],20 nM
human cyclin D1 (CCND1) (from UniProt P24385 1-295) (natural protein),Kd,[4],14100 nM
